Experimental findings from publication PMC10050235, “Structural basis of Ty1 integrase tethering to RNA polymerase III for targeted retrotransposon integration” (Nature Communications, 2023) are described below.

Sequences and labels used below:
B1: Pol III subunit C11 (within purified Pol III) (natural protein, UniProt Q04307 1-110, looked up)
chain: MLSFCPSCNNMLLITSGDSGVYTLACRSCPYEFPIEGIEIYDRKKLPRKEVDDVLGGGWDNVDQTKTQCPNYDTCGGESAYFFQLQIRSADEPMTTFYKCVNCGHRWKEN
notes: RNA polymerase III subunit C11, S. cerevisiae; two Zn-ribbons (residues 1-36 and 64-110) joined by a linker (37-63); Subunit of m2, written alone for the pairs that touch in the structures; source: endogenous, S. cerevisiae strain SC1613, purified as part of Pol III (IgG Sepharose, TEV elution, Mono-Q)
B2: Pol III subunit C53 (within purified Pol III) (natural protein, UniProt P25441 1-422, looked up)
chain: MSSNKGNGRLPSLKDSSSNGGGSAKPSLKFKPKAVARKSKEEREAAASKVKLEEESKRGNDKKHFNNKNKRVTGAGGQQRRMAKYLNNTHVISSGPLAAGNFVSEKGDLRRGFIKSEGSGSSLVQKGLETIDNGAESSENEAEDDDNEGVASKSKKKFNMGKEFEARNLIEDEDDGESEKSSDVDMDDEEWRSKRIEQLFPVRPVRVRHEDVETVKREIQEALSEKPTREPTPSVKTEPVGTGLQSYLEERERQVNEKLADLGLEKEFQSVDGKEAAAELELLNADHQHILRKLKKMNNKPERFMVFQLPTRLPAFERPAVKEEKEDMETQASDPSKKKKNIKKKDTKDALSTRELAGKVGSIRVHKSGKLSVKIGNVVMDIGKGAETTFLQDVIALSIADDASSAELLGRVDGKIVVTPQI
notes: RNA polymerase III subunit C53, S. cerevisiae; N-terminal low-complexity region C53-Nt is residues 1-274; Subunit of m2, written alone for the pairs that touch in the structures; source: endogenous, S. cerevisiae strain SC1613, purified as part of Pol III (IgG Sepharose, TEV elution, Mono-Q)

Assay [1] deals with RNA polymerase III (Pol III), 17 subunits, isolated from yeast (S. cerevisiae (endogenous in strain SC1613)) (UniProt P04051). Put plainly: native gel or EMSA; recombinant IN1 mixed with Pol III isolated from yeast, free of nucleic acids; native gel electrophoresis. (In general: Mobility shift assays separate free from complexed probe on a gel.)
Assay [2] deals with B2. As to the kind of experiment: cryo-EM structure; Pol III and IN1 both at 0.5 uM in 20 mM HEPES-NaOH pH 7.5, 170 mM NaCl, 2 mM DTT, 30 min at 4 °C; crosslinked with 0.06% glutaraldehyde; no nucleic acids (maps A-C). The note with it: both partners purified.
Assay [3] concerns the target T1, Pol III subunit C37 (within purified Pol III) (S. cerevisiae (endogenous in strain …, UniProt P36121 1-282)).
T1 construct: RNA polymerase III subunit C37, S. cerevisiae; Subunit of m2, written alone for the pairs that touch in the structures; source: endogenous, S. cerevisiae strain SC1613, purified as part of Pol III (IgG Sepharose, TEV elution, Mono-Q)
T1 sequence (looked up): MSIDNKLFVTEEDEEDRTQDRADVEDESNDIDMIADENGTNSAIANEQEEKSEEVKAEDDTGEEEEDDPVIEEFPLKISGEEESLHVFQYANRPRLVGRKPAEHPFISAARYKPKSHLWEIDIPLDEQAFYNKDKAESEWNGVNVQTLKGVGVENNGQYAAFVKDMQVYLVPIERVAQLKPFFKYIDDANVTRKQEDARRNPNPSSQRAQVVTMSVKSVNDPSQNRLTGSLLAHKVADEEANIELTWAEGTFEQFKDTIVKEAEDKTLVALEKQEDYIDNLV
The description is as above. To be noted: both partners purified.

Assay [4] has as its target T2, Pol III subunit C128 (within purified Pol III) (S. cerevisiae (endogenous in strain …, UniProt P22276 1-1149)).
T2 construct: RNA polymerase III second largest subunit C128, S. cerevisiae; Subunit of m2, written alone for the pairs that touch in the structures; source: endogenous, S. cerevisiae strain SC1613, purified as part of Pol III (IgG Sepharose, TEV elution, Mono-Q)
T2 sequence (looked up): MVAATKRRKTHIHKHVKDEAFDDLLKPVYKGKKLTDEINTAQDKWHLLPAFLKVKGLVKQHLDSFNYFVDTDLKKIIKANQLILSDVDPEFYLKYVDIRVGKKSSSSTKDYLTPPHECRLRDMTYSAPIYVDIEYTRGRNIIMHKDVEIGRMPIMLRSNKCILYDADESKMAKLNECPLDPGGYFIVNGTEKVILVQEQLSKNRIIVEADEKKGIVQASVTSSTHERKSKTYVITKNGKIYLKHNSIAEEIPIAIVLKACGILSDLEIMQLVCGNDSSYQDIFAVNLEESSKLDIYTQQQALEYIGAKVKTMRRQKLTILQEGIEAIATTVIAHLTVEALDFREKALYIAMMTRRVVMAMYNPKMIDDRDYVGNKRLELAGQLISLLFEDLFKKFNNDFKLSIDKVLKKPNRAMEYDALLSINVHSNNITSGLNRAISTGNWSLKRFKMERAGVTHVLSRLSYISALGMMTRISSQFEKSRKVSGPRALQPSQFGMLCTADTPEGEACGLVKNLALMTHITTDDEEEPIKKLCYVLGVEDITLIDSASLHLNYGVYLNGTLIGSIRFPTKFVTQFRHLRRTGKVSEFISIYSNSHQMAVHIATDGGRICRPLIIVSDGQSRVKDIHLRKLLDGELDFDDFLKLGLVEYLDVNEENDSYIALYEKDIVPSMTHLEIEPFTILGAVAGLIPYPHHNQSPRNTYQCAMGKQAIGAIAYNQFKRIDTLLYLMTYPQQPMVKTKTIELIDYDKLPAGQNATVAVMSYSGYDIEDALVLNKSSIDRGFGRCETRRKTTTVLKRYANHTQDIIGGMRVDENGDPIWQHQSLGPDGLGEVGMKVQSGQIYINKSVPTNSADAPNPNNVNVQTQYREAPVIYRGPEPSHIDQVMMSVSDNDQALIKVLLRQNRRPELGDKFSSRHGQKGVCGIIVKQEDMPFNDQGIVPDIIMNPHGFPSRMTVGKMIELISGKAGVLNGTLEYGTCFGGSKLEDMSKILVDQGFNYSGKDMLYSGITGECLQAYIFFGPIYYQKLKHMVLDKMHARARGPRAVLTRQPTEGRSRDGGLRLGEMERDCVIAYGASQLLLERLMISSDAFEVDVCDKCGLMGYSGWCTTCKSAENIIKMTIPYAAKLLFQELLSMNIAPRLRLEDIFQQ
The description is as above. The note with it: both partners purified.

The target of assay [5] is T3, Pol III subunit C160 (within purified Pol III) (S. cerevisiae (endogenous in strain …, UniProt P04051 1-1460)).
T3 construct: RNA polymerase III largest subunit C160, S. cerevisiae; Subunit of m2, written alone for the pairs that touch in the structures; source: endogenous, S. cerevisiae strain SC1613, purified as part of Pol III (IgG Sepharose, TEV elution, Mono-Q)
T3 sequence (looked up): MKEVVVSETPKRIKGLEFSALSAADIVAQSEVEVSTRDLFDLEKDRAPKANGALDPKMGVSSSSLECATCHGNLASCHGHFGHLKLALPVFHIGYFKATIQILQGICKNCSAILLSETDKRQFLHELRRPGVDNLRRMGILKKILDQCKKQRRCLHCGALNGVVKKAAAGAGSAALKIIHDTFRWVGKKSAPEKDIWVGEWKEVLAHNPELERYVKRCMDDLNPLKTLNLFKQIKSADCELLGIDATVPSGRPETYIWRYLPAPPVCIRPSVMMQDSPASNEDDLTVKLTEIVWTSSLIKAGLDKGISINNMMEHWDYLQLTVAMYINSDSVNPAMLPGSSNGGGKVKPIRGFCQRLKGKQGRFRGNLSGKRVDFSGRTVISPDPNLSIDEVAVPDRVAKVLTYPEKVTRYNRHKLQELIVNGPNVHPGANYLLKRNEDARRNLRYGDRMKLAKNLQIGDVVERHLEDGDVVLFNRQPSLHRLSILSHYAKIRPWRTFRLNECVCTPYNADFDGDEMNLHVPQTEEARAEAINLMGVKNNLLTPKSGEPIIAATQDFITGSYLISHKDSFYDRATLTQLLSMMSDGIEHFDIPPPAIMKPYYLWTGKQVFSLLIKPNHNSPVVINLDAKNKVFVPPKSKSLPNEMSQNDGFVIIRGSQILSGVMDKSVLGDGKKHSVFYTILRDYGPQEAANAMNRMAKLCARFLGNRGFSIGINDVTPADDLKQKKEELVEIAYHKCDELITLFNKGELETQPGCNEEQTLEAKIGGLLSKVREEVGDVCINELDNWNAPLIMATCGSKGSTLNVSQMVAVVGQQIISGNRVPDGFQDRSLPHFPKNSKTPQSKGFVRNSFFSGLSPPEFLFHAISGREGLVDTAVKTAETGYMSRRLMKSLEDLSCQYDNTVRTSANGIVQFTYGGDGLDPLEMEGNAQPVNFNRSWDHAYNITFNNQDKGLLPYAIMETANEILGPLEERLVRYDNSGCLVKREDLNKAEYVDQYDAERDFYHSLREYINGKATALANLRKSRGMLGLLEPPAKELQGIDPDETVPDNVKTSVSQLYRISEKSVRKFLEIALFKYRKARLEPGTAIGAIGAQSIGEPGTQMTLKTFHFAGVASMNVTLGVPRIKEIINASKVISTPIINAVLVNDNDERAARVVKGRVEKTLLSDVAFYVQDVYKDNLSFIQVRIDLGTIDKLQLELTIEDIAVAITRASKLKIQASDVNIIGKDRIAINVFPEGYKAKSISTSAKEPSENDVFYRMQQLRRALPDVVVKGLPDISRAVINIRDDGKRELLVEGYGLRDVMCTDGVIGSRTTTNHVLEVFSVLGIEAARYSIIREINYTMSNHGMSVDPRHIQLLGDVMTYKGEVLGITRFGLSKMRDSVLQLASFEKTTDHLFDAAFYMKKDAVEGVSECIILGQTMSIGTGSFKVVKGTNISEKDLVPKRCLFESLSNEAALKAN
As to the kind of experiment: cryo-EM structure; Pol III-DNA (0.4 uM, mismatched transcription bubble) mixed with 0.6 uM IN1, 30 min at 20 °C in 10 mM Hepes pH 7.5, 150 mM NaCl, 5 mM MgCl2, 5 mM DTT; 8 mM CHAPSO on the grid (map D). The note with it: both partners purified.

Assay [6] addresses T3, Pol III subunit C160 (within purified …). As to the kind of experiment: cryo-EM structure; Pol III and IN1 both at 0.5 uM in 20 mM HEPES-NaOH pH 7.5, 170 mM NaCl, 2 mM DTT, 30 min at 4 °C; crosslinked with 0.06% glutaraldehyde; no nucleic acids (maps A-C). To be noted: both partners purified.

Turning to “Ty1 integrase (IN1), recombinant (from UniProt Q12414 583-1217) (enzyme)”, the stoichiometry N (commonly a count of units in the complex or per binding partner) in assay [1] stood at 1.

In the case of B1, the binding result in assay [2], in assay [3], in assay [4] and in assay [5] was “binds” in each case.

For B2, the binding result in assay [6] is reported as “binds”.
